Data taken from paper PMC11742915 (Nature Communications, 2025).

What was measured:
IFNλR1 (Homo sapiens) = IFNλR1 (Homo sapiens) (UniProt Q8IU57); conditions: cited from earlier work
IFNλR1 [1] = target: T1, IFNλR1 (UniProt Q8IU57 21-226, biotin (in SPR, MST and yeast staining); fluorescent dye NanoTemper NT-L020 (in MST)); experiment: cell-based or functional assay
IFNλR1 [2] = target: T1, IFNλR1; experiment: SPR; Biacore T200, 22 °C, equilibrium method; ~850 RU biotinylated IFNλR1 captured on a Biotin CAPture chip, IFNλ4 as analyte, nine points; 10 mM MES pH 5.6, 500 mM NaCl, 10% glycerol, 0.05% Tween20; 1:1 binding model; conditions: both partners purified
IFNλ4 = target: T2, IFNλ4 (human, UniProt K9M1U5-1 22-179); experiment: MST
T2 chain: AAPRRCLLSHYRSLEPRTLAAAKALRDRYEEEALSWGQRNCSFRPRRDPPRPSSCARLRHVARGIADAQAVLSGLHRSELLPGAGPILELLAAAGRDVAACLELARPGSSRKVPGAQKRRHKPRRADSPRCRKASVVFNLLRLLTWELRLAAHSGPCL

IFNλ3 = target: T3, IFNλ3 (UniProt Q8IZI9 34-196); experiment: MST
T3 chain: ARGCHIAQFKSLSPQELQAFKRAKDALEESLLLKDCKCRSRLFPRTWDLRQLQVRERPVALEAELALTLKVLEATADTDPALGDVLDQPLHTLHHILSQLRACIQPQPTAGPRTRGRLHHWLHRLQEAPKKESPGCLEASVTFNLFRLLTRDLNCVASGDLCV

## IFNλ3 (from UniProt Q8IZI9)
IFNλR1 (Homo sapiens)
  Kd: 850 nM

B1: IFNλ4 (ligand, human, UniProt K9M1U5-1 22-179, looked up)
chain: AAPRRCLLSHYRSLEPRTLAAAKALRDRYEEEALSWGQRNCSFRPRRDPPRPSSCARLRHVARGIADAQAVLSGLHRSELLPGAGPILELLAAAGRDVAACLELARPGSSRKVPGAQKRRHKPRRADSPRCRKASVVFNLLRLLTWELRLAAHSGPCL
notes: codon-optimised gene; also called interferon lambda 4; source: insect Hi5 cells (baculovirus), secreted as sfGFP-10RB-IFNλ4, cleaved with 3C protease, purified (S75 Superdex)
IFNλR1 [1]
  pSTAT1 signaling in Hap1 cells, EC50 relative to IFNλ3: 20 fold
IFNλR1 [2]
  Kd: 191 nM

B2: IFNλR1 (receptor)
chain: RPRLAPPQNVTLLSQNFSVYLTWLPGLGNPQDVTYFVAYQSSPTRRRWREVEECAGTKELLCSMMCLKKQDLYNKFKGRVRTVSPSSKSPWVESEYLDYLFEVEPAPPVLVLTQTEEILSANATYQLPPCMPPLDLKYEVAFWKEGAGNKTLFPVTPHGQPVQITLQPAASEHHCLSARTIYTFSVPKYSKFSKPTCFLLEVPEAN
modifications: biotin (in SPR, MST and yeast staining); fluorescent dye NanoTemper NT-L020 (in MST)
IFNλ4
  Kd: 396 nM
IFNλ3
  Kd: 1580 nM
